# Reference: the nanobody polyreactivity screen of Harvey et al. (2022)
# Assay: yeast display, Sf9 membrane polyspecificity reagent, FACS + sequencing; frameworks hold sequencing errors
# Procedure, shortened: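 In a synthetic yeast display library (Saccharomyces cerevisiae BJ5465), nanobody expression was induced with galactose for 36–48 hours. FACS gates were set low and high (top ~1%) using anti-HA fluorescence for expression and streptavidin fluorescence for binding of the Sf9 membrane reagent. Each polyreactivity label is drawn from the gate of origin.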
row,Sequence,polyreactivity (PSR sort gate)
1,QVQLVESGGGLVQAGGSLRLSCAASGSIFRRYAMGWYRQAPGKEREFVAAITRSGGGTYYADSVKGRFTISRDNAKNTVYLQMNSLKPEDTAVYYCAKDVFVQRSRYPEGDYWGQGTQVTVSS,high polyreactivity
2,QVQLVESGGGLVQAGGSLRLSCAASGSIFRRYAMGWYRQAPGKERELVAAISGSAGSTYYADSVKGRFTISRDNAKNTVYLQMNSLKPEDTAVYYCKTDRSRSPGDVESASDIKRDYWGQGTQVTVSS,low polyreactivity
3,QVQLVESGGGLVQAGGSLRLSCAASGSIFRRYAMGWYRQAPGKERELVAAISWRGDSTYYADSVKGRFTISRDNAKNTVYLQMNSLIPEDTAVYYCAADYYRAGRYWGQRHGYDYWGQGTQVTVSS,low polyreactivity
4,QVQLVESGGGLVQAGGSLRLSCAASGSIFRRYAMGWYRQAPGKERELVAAITGTGGRTYYADSVKGRFTMSRDNAKNTVYLQMNSLKPEDTAVYYCNKLVTYYRADPEYDYWGQGTHVTVSS,high polyreactivity
5,QVQLVESGGGLVQAGGSLRLSCAASGSIFRRYAMGWYRQAPGKERELVATISYRGGTTYYADSVKVRFTISRDNAKNTVYLQMNSLKPEDTAVYYCNTLYYRGIYDHWGQGTQVTVSS,high polyreactivity
6,QVQLVESGGGLVQAGGSLRLSCAASGSIFRRYATGWYRQAPGKERQLVAAISSGGSTYADSVKGRFTISRDNAKNTVYLQMNSLKPEDTAVYYCNASGRWYYGRRYDYWGHGTQVTVSS,low polyreactivity
7,QVQLVESGGGLVQAGGSLRLSCAASGSIFRSNAMGWYRQAPGKEREVVAAISSRGGSTYYADSVKGRFTISRDNAKNTVYLQMNSLKPEDTAVYFCNKARYTVISYDEYDYWGQGTQVTVSS,high polyreactivity
8,QVQLVESGGGLVQAGGSLRLSCAASGSIFRSNSMGWYRQAPGKERELVAAISSRGGSTYYADSVKGRFTISRDNAKNTVYLQMNSLKPEDTAVYYCYKDRYTVISYDEYDYWGQGTQVTVSS,high polyreactivity
9,QVQLVESGGGLVQAGGSLRLSCAASGSIFRSSDMGWYRQAPGKERELVAAISDSTGTTYYADSVKGRFTISRDNAKNTVYLQMNSLKPEDTAVYYCAADYFWYRSGRYHYWGQGTQVTVSS,high polyreactivity
10,QVQLVESGGGLVQAGGSLRLSCAASGSIFRSYAMGWYRQAPGKERELVAAISRRGGSTYYADSVKGRFTISRDNAKNTVYLQMNSLKPADTGVYYCAAVRYNSRVSTTPSDMYYWGQGTQVTVSS,low polyreactivity
11,QVQLVESGGGLVQAGGSLRLSCAASGSIFRSYAMGWYRQAPGNERELVAAITRSGGSTYYADSVKGRFTISRDNAKNTVYLQMNSLKPEDTAVYYCAAEYYSYTWGWGHGYWGQGTQVTVSS,high polyreactivity
12,QVQLVESGGGLVQAGGSLRLSCAASGSIFRTNAMGWYRQAPGKEREFVASISSDSGNTYYADSVKGRFTISRDNAKYTVYLQMNSLKPEDTAVYYCARRKVRYWSYRAANYYWGQGTQVTVSS,low polyreactivity
13,QVQLVESGGGLVQAGGSLRLSCAASGSIFRTNTMGWYRQAPGKEREFVAAITAIGDSTYYADSVKGRFTISRDNAKNTVYLQMNSLKPEDTAVYYCAAEKVSWGYHFYSSYDYWGQGTQVTVSS,low polyreactivity
14,QVQLVESGGGLVQAGGSLRLSCAASGSIFRTYTMGWYRQAPGKEREFVAAISRSGGSTYYADSVKGRFTISRDNAKNTVYLQMNSLKPEDTAVYYCNARCGLGSYGYWGQGTQVTVSS,high polyreactivity
15,QVQLVESGGGLVQAGGSLRLSCAASGSIFRTYTMGWYRQAPGKEREFVAAISRSGGSTYYADSVKGRFTISRDNAKNTVYLQMNSLKPEDTAVYYCNARWGLGSYGYWGQGTQVTVTS,high polyreactivity
16,QVQLVESGGGLVQAGGSLRLSCAASGSIFRVYAMGWYRQAPGKERELVAAISSSGDSTYYADSVKGRFTISRDNAKNTVYLQMNSLKPEDTAVYYCAADVKQRVKSSTMYYWGQGTQVTVSS,high polyreactivity
17,QVQLVESGGGLVQAGGSLRLSCAASGSIFRVYAMGWYRQAPGKERELVAAISSSGVRTSYADSVKGRFTISRDNAKNTVYLQMNSLKPEDTAVYYCNAAYGRRYDYWGQGTQVTVSS,high polyreactivity
18,QVQLVESGGGLVQAGGSLRLSCAASGSIFRVYAMGWYRQAPGKERELVAAITSRGGSTYYADSVKGRFTISRDNAKNTVYLQMNSLKQEDTAVYYCAAAYPYRTGRGYYWGQGTQVTVSS,high polyreactivity
19,QVQLVESGGGLVQAGGSLRLSCAASGSIFRVYAMGWYRQAPGKERELVAAITYSSGSTYYADSVKGRFTISRDNAKNTVYLQMNSLKPEDTAVYYCAAYWSYYLREFDYWGQGTQVTVSS,high polyreactivity
20,QVQLVESGGGLVQAGGSLRLSCAASGSIFRVYAMGWYRQAPGKVRELVAVISIAGRTNYADSVKGRFTISRDNAKNTVYLQMNSLKPEDTAVYYCNAEWDLNHLYDSWGQGTQETVSS,low polyreactivity
21,QVQLVESGGGLVQAGGSLRLSCAASGSIFRWNAMGWSRQATGKERELVAVINSSGGSTYYADSVKGRFTISRDNAKNTVYLQMNSLKPEDTAVYYCAADVFFYVYEAYLLYYWGQGTQVTVSS,low polyreactivity
22,QVQLVESGGGLVQAGGSLRLSCAASGSIFRWYAIGWYRQAPGKERELVATICWSTGTTYYADSVKGRFTISRDNAKNTVYLQMNSLKPEDTAVYYCAKVSTYRSSYSLKSGYGNDYWGQGTQVTVSS,low polyreactivity
23,QVQLVESGGGLVQAGGSLRLSCAASGSIFRYNAMGWYRQAPGKERELVAAIDWSGGTYYADSVKGRFTISRDNAKNTVYLQMNSLKPEDTAVYYCNARGSTYSSYWGYDYWGQGTQVTVSS,low polyreactivity
24,QVQLVESGGGLVQAGGSLRLSCAASGSIFRYNAMGWYRQAPGKERELVAAISQSGGRTSYADSVKGRFTISRDNAKNTVYLQMNSLKPEDTAVYYCAKRAYGYRSIYRMDYWGQGTQVTVSS,high polyreactivity
25,QVQLVESGGGLVQAGGSLRLSCAASGSIFRYNAMGWYRQAPGKERELVAGITWGGGRTYYADSVKGRFTISRDNAKNTVYLQMNSLKPEDTAVYYCNAVRKYKGDSSFDYWGQGTQVTVSS,high polyreactivity
26,QVQLVESGGGLVQAGGSLRLSCAASGSIFRYNAMGWYRQAPGKERELVAVIRGTSGDTYYADSVKGRFTISRDNAKNTVYLQMNSLKPEDTAVYYCAAQLAGASYSHSNYSDWFDYWGQGTQVTVSS,low polyreactivity
27,QVQLVESGGGLVQAGGSLRLSCAASGSIFRYNVMGWYRQAPGKERELVAAISYTGGRKYYADSVKGRFTISRDNAKNTVYLQMNRLKPEETAVYDCAALGWSGRYRYDYWGQGTQVTVAS,high polyreactivity
28,QVQLVESGGGLVQAGGSLRLSCAASGSIFRYVMGWYRQAPGKERELVAAISIRGGSTYYADSVKGRFTISRDNAKNTVYLQMNSLKPEDTAVYYCAADRYRLGVKYDYWGQGNQVTVSS,high polyreactivity
29,QVQLVESGGGLVQAGGSLRLSCAASGSIFRYYAMGWSRQAPGKERELVAAISRRGSSTYYADSVKGRFTISRDNAKKTVYLQMNSLKPEDTAVYYCAAGDFKQYDYWGQGTQVTVSS,high polyreactivity
30,QVQLVESGGGLVQAGGSLRLSCAASGSIFRYYAMGWYRQAPGKEREFVAAISRSGGSTYYADSVKGRFTISRDNAKNTVYLQMNSLKPEDTAVYYCAASYYRYFVSLGYDYWGQGTQVTVSS,high polyreactivity
